Assay results taken from the supplement of paper PMC9170038.

System: MS2 coat protein
Assay: apparent KD of MS2 coat protein; designed switch direction (-1 OFF switch, 1 ON switch): -1; higher = weaker reporter binding
Procedure, shortened: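 Each step of the titration lasted 0.8–1.5 h at the lowest concentration and 10–20 min at the highest. The protein, SNAP-549-labelled MS2 coat protein, went from 0.7 or 1.5 nM doubling to 3 µM over RNA switches transcribed on Illumina chips by stalled E. coli RNA polymerase. Normalised cluster fluorescence was curve-fitted, and the per-design median over clusters is given as apparent KD.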

[1] = Eterna round: R95, input ligand: FMN 200 uM
[2] = Eterna round: R95, input ligand: microRNA oligo, concentration not stated
[3] = Eterna round: R95, input ligand: none
[4] = input ligand: microRNA oligo, concentration not stated

Sequence	apparent KD of MS2 coat protein (input ligand: FMN 200 uM)	apparent KD of MS2 coat protein (input ligand: none)	apparent KD of MS2 coat protein [1]	apparent KD of MS2 coat protein [2]	apparent KD of MS2 coat protein [3]	apparent KD of MS2 coat protein [4]
CACAAGCUUGGGCUCGCUGACAUGAGGAUCACCCAUGUCGGAUCAGACACCAAACGUCUCGAUCACGACGGAUCCAG [Eternabot (Original) Solution 7] (Eterna round: R97, puzzle: Sensor, turn-off variant 1)	40 nM	33.3 nM				
AGUAACCGUCACGAAAGUGAUGGUUACACAAGCAAUGAAACAUGAGGAUCACCCAUGUCCUCAUUUGCUCGUCUUAU [Sensor 3 - 40] (puzzle: Sensor v3, turn-off variant 2)			25.5 nM	486 nM	26.8 nM	
UAAAAUAAACAUGAGGAUCACCCAUGUGAAUGGACUCCUCGGGAGGAUAUUCUGCUUAAAGGUCAGGAGAAGGCCCAUUGCAAU [Isinza] (Eterna round: R96, puzzle: Exclusion NG 3)	545 nM	197 nM				242 nM
UUGGAGAGAGGAUAUCCCUAGUUUAACAUGAGGAUCACCCAUGUGCGCGUCAAGUCGAAAGGAGAAGGUUCGGCGA [Eternabot (L1) Solution 5] (Eterna round: R97, puzzle: Exclusion 5)	32.7 nM	26.8 nM				
UUUUAACAUGAGGAUCACCCAUGUGAGGAUAUCGAAAUUUAUAUUUAUAUUAAUAUUACGAGAAGGCACAUUUU [JMF 82] (puzzle: Exclusion 1)				89.6 nM		
GUCACUAGAGGAUAUACAAUGGUAUAUGAUCCUAGAGACAUACAUGAGGAUCACCCAUGUAGAAGGCUAGUAAU [Exclusion 2 - 6] (puzzle: Exclusion 2)				68.7 nM		
UCGUUUCGUGUAGGAUAUUGGCCUGCUCUGGGUCGAGAAGGACAUGAGGAUCACCCAUGUAUGUUAUUAUCACGCGUGGCGCAU [Design 82] (Eterna round: R96, puzzle: Exclusion NG 1)	124 nM	36.6 nM				34 nM
GUCAGCUCGUCAGGAUAUGAACAUGAGGAUCACCCAUGUAAGAUCAAGCUGCUUCGGCAGCAAGUUCAGAAGGGACGAGCUGAC [ENG2/10-B1] (Eterna round: R96, puzzle: Exclusion NG 2)	161 nM	113 nM				78.7 nM
CUAGAGCGAGGAUAUACAUGAGGAUCACCCAUGUGGCAGCCGGGUAGGAGUGACGUCGGUAGAAGGCGCACCCG [Anrate] (puzzle: Exclusion 3)			27.5 nM	33.2 nM	37.9 nM	
AAGAAACAUGAGGAUCACCCAUGUGAGGAUAUGAAAAAGAAAAUAAAAUAAAGAAGAAUCAGAAGGCACAAAGG [Mat - Mod of Hog D4] (puzzle: Exclusion 1)			34 nM	24.9 nM	28.1 nM	
UCCUCACAUGAGGAUCACCCAUGUCAGGAUAUCCAGUUGGGCCUCUGUAGAGGCGCCAGGAGAAGGGAUAAGGA [Ceenerso] (Eterna round: R97, puzzle: Exclusion 1)	35.9 nM	22.3 nM				
UAGGUGUGAGGAUAUGGUAAAGAUAAGAUGAUGAAAGAACUCCAGAAGGCACAUGAGGAUCACCCAUGUAGAUA [Mat - Exclusion 4 - Mod of JL - D31] (puzzle: Exclusion 4)			34.9 nM	20 nM	20.5 nM	
UUAUAUAGUGUGAGGAUAUGCUGGUCCUUGGAUCAGCAGAAGGCACAUGAGGAUCACCCAUGUAGUUUAUUUUU [Mat - Exclusion 4 - JL Mod - D4] (puzzle: Brourd's mod of Exclusion 4)				25.9 nM		
AUCAUGUAAGGAUAUCUGACAUGUGACUUCGGUCACUGUUCAGAGAAGGUACAUGAGGAUCACCCAUGUAGAAC [Ex4-3: 44] (puzzle: Exclusion 4)				59.6 nM		
AGAAGUAGUAACCGAUCCUACAUGAGGAUCACCCAUGUAGCUAGACGUGCACGCGAUGCUCGUCAGACUACCAGAUG [salish99_TOv1_r3_027] (puzzle: Sensor v3, turn-off variant 1)			171 nM	136 nM	171 nM	
CGUGACUGAGGAUAUCUAUAAUAUCACAUGAGGAUCACCCAUGUCCAGCGAAAGCUGGAGGGAGAAGGCAGUCACG [Fiskers Ex 5 - 29] (puzzle: Exclusion 5)			53 nM	127 nM	75.3 nM	
